Key:
rhTRAIL variant D218H = assay: competitive ELISA, soluble DR5-Ig varied, immobilised DR4-Ig
rhTRAIL variant D218Y = assay: as above
[1] = biological target: death receptor 5 (DR5, TRAIL-R2) on cells (UniProt O14763); assay: cell-based or functional assay
[2] = biological target: death receptor 4 (DR4, TRAIL-R1) on cells (UniProt O00220); assay: cell-based or functional assay

Chain of WT rhTRAIL (TRAIL amino acids 114-281 preceded by a methionine) (ligand) (P50591 114-281): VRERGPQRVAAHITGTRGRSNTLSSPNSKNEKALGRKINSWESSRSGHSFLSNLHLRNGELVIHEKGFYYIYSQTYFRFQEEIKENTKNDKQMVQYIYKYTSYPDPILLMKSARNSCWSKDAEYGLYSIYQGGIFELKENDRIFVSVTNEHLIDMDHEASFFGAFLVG

fold less efficient in achieving 50% reduction of binding, against rhTRAIL WT (rhTRAIL variant D218H) [fold]	fold less efficient in achieving 50% reduction of binding, against rhTRAIL WT (rhTRAIL variant D218Y) [fold]	Substance	apoptosis (Annexin V positivity) in Colo205 cells [1] [ng/mL]	apoptosis (Annexin V staining) in EM-2 cells, 24 h; fold lower concentration than WT [2] [fold]	apoptosis (Annexin V staining) in ML-1 cells, 24 h; fold lower concentration than WT [2] [fold]
> 9	> 9	DR5-Ig receptor chimera (from UniProt O14763 56-182) (Fc fusion)	–	–	–
–	–	WT rhTRAIL (TRAIL amino acids 114-281 preceded by a methionine) (ligand)	20	–	–
–	–	rhTRAIL variant R149I (ligand)	–	5	2
–	–	rhTRAIL variant S215D (ligand)	–	5	2

— US20110200552A1
